According to paper PMC9584538 (Cell reports, 2022):
Where “and” joins values, the source holds several entries; their conditions need not be identical. Identical values can stand only once. Like-named read-outs stand apart in the source and are kept apart here.

Legend:
[1] = target: T1, PARLSkd3 (human CLPB) (Homo sapiens, UniProt Q9H078); assay type: biochemical
T1 sequence (Q9H078 127-707): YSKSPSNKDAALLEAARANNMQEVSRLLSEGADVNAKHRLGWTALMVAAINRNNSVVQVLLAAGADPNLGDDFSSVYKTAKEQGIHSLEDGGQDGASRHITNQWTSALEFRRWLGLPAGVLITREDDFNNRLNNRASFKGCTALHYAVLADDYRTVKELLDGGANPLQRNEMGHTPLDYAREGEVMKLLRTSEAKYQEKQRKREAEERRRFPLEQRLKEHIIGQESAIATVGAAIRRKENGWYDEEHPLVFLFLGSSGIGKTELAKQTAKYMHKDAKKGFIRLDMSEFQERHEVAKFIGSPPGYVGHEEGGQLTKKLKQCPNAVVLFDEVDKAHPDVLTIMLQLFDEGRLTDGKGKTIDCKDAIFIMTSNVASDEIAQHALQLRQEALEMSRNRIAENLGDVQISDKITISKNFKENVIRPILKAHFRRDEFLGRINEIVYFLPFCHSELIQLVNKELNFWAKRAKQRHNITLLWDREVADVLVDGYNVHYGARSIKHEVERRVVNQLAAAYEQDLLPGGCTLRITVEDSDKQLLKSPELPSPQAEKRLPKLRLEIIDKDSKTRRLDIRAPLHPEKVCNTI

[2] = target: _(PARL)Skd3^NBD (human); test: cryo-EM structure
[3] = target: _(PARL)Skd3^Δ1-2 (ankyrin repeats 1 and 2 deleted, ΔY127-G196) (human); test: cryo-EM structure
[4] = target: _(PARL)Skd3^Δ1-2 (ankyrin repeats 1 and 2 deleted, ΔY127-G196) (human); test: SEC
[5] = target: the molecule itself; test: SEC
[6] = target: T2, PARL-protease-activated Skd3 (human CLPB), wild type (human, UniProt Q9H078 127-707); test: FRET or BRET
T2 sequence (looked up): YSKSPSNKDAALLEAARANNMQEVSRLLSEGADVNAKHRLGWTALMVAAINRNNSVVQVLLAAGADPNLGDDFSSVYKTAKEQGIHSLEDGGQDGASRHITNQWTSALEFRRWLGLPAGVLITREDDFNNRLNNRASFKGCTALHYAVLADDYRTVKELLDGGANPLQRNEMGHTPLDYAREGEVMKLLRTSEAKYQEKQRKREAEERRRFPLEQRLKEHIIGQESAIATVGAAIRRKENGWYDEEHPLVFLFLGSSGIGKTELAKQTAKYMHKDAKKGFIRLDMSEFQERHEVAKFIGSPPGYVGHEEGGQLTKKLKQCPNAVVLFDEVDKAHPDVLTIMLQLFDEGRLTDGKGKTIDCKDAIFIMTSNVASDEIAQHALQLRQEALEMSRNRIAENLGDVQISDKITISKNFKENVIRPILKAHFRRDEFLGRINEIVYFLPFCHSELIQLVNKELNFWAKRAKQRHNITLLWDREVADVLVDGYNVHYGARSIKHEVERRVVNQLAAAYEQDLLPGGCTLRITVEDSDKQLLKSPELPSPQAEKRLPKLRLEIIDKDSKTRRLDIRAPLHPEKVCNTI

[7] = target: the molecule itself; test: SEC; remark: listed apart in the source

Molecule	stoichiometry N [5]	binding result [6]	stoichiometry N [7]	further results
Nc1ncnc2c1ncn2[C@@H]1O[C@H](COP(=O)(O)OP(=O)(O)O)[C@@H](O)[C@H]1O [ADP]				IC50 [1]: ~1200 µM
_(PARL)Skd3^NBD (domain or fragment)				stoichiometry N [2]: 6
_(PARL)Skd3^Δ1-2 (ankyrin repeats 1 and 2 deleted, ΔY127-G196) (enzyme)				stoichiometry N [3]: 18; stoichiometry N [4]: 12
Nc1ncnc2c1ncn2[C@@H]1O[C@H](CO[P@](=O)(O)O[P@](=O)(O)O[P@@](=O)(O)S)[C@@H](O)[C@H]1O [ATPγS]				IC50 [1]: ~242 µM
_(PARL)Skd3^R475Q (MGCA7-linked variant) (enzyme, human, UniProt Q9H078 127-707, looked up) YSKSPSNKDAALLEAARANNMQEVSRLLSEGADVNAKHRLGWTALMVAAINRNNSVVQVLLAAGADPNLGDDFSSVYKTAKEQGIHSLEDGGQDGASRHITNQWTSALEFRRWLGLPAGVLITREDDFNNRLNNRASFKGCTALHYAVLADDYRTVKELLDGGANPLQRNEMGHTPLDYAREGEVMKLLRTSEAKYQEKQRKREAEERRRFPLEQRLKEHIIGQESAIATVGAAIRRKENGWYDEEHPLVFLFLGSSGIGKTELAKQTAKYMHKDAKKGFIRLDMSEFQERHEVAKFIGSPPGYVGHEEGGQLTKKLKQCPNAVVLFDEVDKAHPDVLTIMLQLFDEGQLTDGKGKTIDCKDAIFIMTSNVASDEIAQHALQLRQEALEMSRNRIAENLGDVQISDKITISKNFKENVIRPILKAHFRRDEFLGRINEIVYFLPFCHSELIQLVNKELNFWAKRAKQRHNITLLWDREVADVLVDGYNVHYGARSIKHEVERRVVNQLAAAYEQDLLPGGCTLRITVEDSDKQLLKSPELPSPQAEKRLPKLRLEIIDKDSKTRRLDIRAPLHPEKVCNTI	12	binds		
_(PARL)Skd3^R620C (SCN-linked variant, sensor-2) (enzyme, human, UniProt Q9H078 127-707, looked up) YSKSPSNKDAALLEAARANNMQEVSRLLSEGADVNAKHRLGWTALMVAAINRNNSVVQVLLAAGADPNLGDDFSSVYKTAKEQGIHSLEDGGQDGASRHITNQWTSALEFRRWLGLPAGVLITREDDFNNRLNNRASFKGCTALHYAVLADDYRTVKELLDGGANPLQRNEMGHTPLDYAREGEVMKLLRTSEAKYQEKQRKREAEERRRFPLEQRLKEHIIGQESAIATVGAAIRRKENGWYDEEHPLVFLFLGSSGIGKTELAKQTAKYMHKDAKKGFIRLDMSEFQERHEVAKFIGSPPGYVGHEEGGQLTKKLKQCPNAVVLFDEVDKAHPDVLTIMLQLFDEGRLTDGKGKTIDCKDAIFIMTSNVASDEIAQHALQLRQEALEMSRNRIAENLGDVQISDKITISKNFKENVIRPILKAHFRRDEFLGRINEIVYFLPFCHSELIQLVNKELNFWAKRAKQRHNITLLWDREVADVLVDGYNVHYGACSIKHEVERRVVNQLAAAYEQDLLPGGCTLRITVEDSDKQLLKSPELPSPQAEKRLPKLRLEIIDKDSKTRRLDIRAPLHPEKVCNTI	12	binds		
_(PARL)Skd3^R561G (SCN-linked variant, Arg finger) (enzyme, human, UniProt Q9H078 127-707, looked up) YSKSPSNKDAALLEAARANNMQEVSRLLSEGADVNAKHRLGWTALMVAAINRNNSVVQVLLAAGADPNLGDDFSSVYKTAKEQGIHSLEDGGQDGASRHITNQWTSALEFRRWLGLPAGVLITREDDFNNRLNNRASFKGCTALHYAVLADDYRTVKELLDGGANPLQRNEMGHTPLDYAREGEVMKLLRTSEAKYQEKQRKREAEERRRFPLEQRLKEHIIGQESAIATVGAAIRRKENGWYDEEHPLVFLFLGSSGIGKTELAKQTAKYMHKDAKKGFIRLDMSEFQERHEVAKFIGSPPGYVGHEEGGQLTKKLKQCPNAVVLFDEVDKAHPDVLTIMLQLFDEGRLTDGKGKTIDCKDAIFIMTSNVASDEIAQHALQLRQEALEMSRNRIAENLGDVQISDKITISKNFKENVIRPILKAHFRRDEFLGGINEIVYFLPFCHSELIQLVNKELNFWAKRAKQRHNITLLWDREVADVLVDGYNVHYGARSIKHEVERRVVNQLAAAYEQDLLPGGCTLRITVEDSDKQLLKSPELPSPQAEKRLPKLRLEIIDKDSKTRRLDIRAPLHPEKVCNTI	12	binds		
_(PARL)Skd3^ΔL (ANK linker deleted, ΔD197-A262) (enzyme, human, UniProt Q9H078 127-707, looked up) YSKSPSNKDAALLEAARANNMQEVSRLLSEGADVNAKHRLGWTALMVAAINRNNSVVQVLLAAGADPNLGSFKGCTALHYAVLADDYRTVKELLDGGANPLQRNEMGHTPLDYAREGEVMKLLRTSEAKYQEKQRKREAEERRRFPLEQRLKEHIIGQESAIATVGAAIRRKENGWYDEEHPLVFLFLGSSGIGKTELAKQTAKYMHKDAKKGFIRLDMSEFQERHEVAKFIGSPPGYVGHEEGGQLTKKLKQCPNAVVLFDEVDKAHPDVLTIMLQLFDEGRLTDGKGKTIDCKDAIFIMTSNVASDEIAQHALQLRQEALEMSRNRIAENLGDVQISDKITISKNFKENVIRPILKAHFRRDEFLGRINEIVYFLPFCHSELIQLVNKELNFWAKRAKQRHNITLLWDREVADVLVDGYNVHYGARSIKHEVERRVVNQLAAAYEQDLLPGGCTLRITVEDSDKQLLKSPELPSPQAEKRLPKLRLEIIDKDSKTRRLDIRAPLHPEKVCNTI			12 and 6	
_(PARL)Skd3^Δ3-4 (ankyrin repeats 3 and 4 deleted, ΔS263-K325) (enzyme, human, UniProt Q9H078 127-707, looked up) YSKSPSNKDAALLEAARANNMQEVSRLLSEGADVNAKHRLGWTALMVAAINRNNSVVQVLLAAGADPNLGDDFSSVYKTAKEQGIHSLEDGGQDGASRHITNQWTSALEFRRWLGLPAGVLITREDDFNNRLNNRAQRKREAEERRRFPLEQRLKEHIIGQESAIATVGAAIRRKENGWYDEEHPLVFLFLGSSGIGKTELAKQTAKYMHKDAKKGFIRLDMSEFQERHEVAKFIGSPPGYVGHEEGGQLTKKLKQCPNAVVLFDEVDKAHPDVLTIMLQLFDEGRLTDGKGKTIDCKDAIFIMTSNVASDEIAQHALQLRQEALEMSRNRIAENLGDVQISDKITISKNFKENVIRPILKAHFRRDEFLGRINEIVYFLPFCHSELIQLVNKELNFWAKRAKQRHNITLLWDREVADVLVDGYNVHYGARSIKHEVERRVVNQLAAAYEQDLLPGGCTLRITVEDSDKQLLKSPELPSPQAEKRLPKLRLEIIDKDSKTRRLDIRAPLHPEKVCNTI			12	
_(PARL)Skd3^ΔL507-I534 (NBD insertion deleted) (enzyme, human, UniProt Q9H078 127-707, looked up) YSKSPSNKDAALLEAARANNMQEVSRLLSEGADVNAKHRLGWTALMVAAINRNNSVVQVLLAAGADPNLGDDFSSVYKTAKEQGIHSLEDGGQDGASRHITNQWTSALEFRRWLGLPAGVLITREDDFNNRLNNRASFKGCTALHYAVLADDYRTVKELLDGGANPLQRNEMGHTPLDYAREGEVMKLLRTSEAKYQEKQRKREAEERRRFPLEQRLKEHIIGQESAIATVGAAIRRKENGWYDEEHPLVFLFLGSSGIGKTELAKQTAKYMHKDAKKGFIRLDMSEFQERHEVAKFIGSPPGYVGHEEGGQLTKKLKQCPNAVVLFDEVDKAHPDVLTIMLQLFDEGRLTDGKGKTIDCKDAIFIMTSNVASDEIAQHATISKNFKENVIRPILKAHFRRDEFLGRINEIVYFLPFCHSELIQLVNKELNFWAKRAKQRHNITLLWDREVADVLVDGYNVHYGARSIKHEVERRVVNQLAAAYEQDLLPGGCTLRITVEDSDKQLLKSPELPSPQAEKRLPKLRLEIIDKDSKTRRLDIRAPLHPEKVCNTI			12	
